According to US20240175042:

Experiments:
His6-EBF2 (purified) = His6-EBF2 (purified) (UniProt Q708Y0)
[1] = target: EIN2-CEND (co-expressed in Arabidopsis mesophyll protoplasts) (UniProt Q9S814)
Sequence of EIN2-CEND (co-expressed in Arabidopsis mesophyll protoplasts) (Q9S814 462-1294): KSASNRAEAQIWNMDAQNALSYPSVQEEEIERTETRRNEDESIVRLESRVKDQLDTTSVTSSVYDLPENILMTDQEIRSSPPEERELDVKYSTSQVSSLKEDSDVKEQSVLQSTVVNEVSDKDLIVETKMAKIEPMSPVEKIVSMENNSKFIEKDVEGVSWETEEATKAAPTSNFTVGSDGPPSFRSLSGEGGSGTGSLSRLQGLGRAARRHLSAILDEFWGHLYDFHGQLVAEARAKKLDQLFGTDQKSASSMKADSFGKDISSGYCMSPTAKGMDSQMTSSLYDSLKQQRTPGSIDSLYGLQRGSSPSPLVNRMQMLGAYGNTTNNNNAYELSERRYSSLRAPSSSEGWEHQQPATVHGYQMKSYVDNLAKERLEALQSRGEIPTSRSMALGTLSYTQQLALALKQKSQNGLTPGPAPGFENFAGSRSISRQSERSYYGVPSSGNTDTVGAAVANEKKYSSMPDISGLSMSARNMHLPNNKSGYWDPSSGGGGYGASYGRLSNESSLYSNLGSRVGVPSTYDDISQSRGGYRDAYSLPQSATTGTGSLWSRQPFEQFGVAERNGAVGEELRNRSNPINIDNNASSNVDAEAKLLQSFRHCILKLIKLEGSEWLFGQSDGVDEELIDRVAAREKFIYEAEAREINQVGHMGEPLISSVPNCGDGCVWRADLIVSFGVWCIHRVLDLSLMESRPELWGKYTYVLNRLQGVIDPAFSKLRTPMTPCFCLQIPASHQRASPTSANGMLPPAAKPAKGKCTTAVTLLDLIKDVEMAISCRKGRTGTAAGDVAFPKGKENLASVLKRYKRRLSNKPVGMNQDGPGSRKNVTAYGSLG

Sequence of His6-EBF2 (purified) (Q708Y0 whole entry): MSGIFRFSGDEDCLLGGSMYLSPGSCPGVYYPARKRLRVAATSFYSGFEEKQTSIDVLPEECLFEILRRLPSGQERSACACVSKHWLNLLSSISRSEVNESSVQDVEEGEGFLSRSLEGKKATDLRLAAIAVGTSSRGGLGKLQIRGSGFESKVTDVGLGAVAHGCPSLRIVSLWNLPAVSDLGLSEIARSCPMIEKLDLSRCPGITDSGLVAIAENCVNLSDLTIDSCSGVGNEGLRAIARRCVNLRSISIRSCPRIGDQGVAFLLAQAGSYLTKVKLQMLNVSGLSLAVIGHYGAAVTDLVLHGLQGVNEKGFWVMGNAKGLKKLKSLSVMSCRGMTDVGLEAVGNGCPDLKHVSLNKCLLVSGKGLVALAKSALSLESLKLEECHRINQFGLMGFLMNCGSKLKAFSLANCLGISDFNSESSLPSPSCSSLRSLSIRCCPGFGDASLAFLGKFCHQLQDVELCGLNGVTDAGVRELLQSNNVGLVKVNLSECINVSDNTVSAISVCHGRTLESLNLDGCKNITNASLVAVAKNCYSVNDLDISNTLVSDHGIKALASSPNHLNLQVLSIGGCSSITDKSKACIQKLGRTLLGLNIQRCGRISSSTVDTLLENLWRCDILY
Sequence of CTR1-KD (wild-type CTR1 kinase domain lacking the N-terminal domain, expressed in Arabidopsis mesophyll protoplasts) (chain, as listed by the source): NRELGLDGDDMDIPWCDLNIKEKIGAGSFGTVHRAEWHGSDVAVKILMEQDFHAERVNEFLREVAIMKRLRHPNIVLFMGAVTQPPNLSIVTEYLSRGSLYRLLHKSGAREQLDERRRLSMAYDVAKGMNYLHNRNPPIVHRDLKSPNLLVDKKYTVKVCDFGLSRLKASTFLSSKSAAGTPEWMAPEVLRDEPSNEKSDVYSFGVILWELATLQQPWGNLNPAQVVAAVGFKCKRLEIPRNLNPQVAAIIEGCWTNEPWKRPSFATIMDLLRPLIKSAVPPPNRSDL
Sequence of CTR1-KD^AAA (CTR1 kinase domain with T704A/S707A/S710A, expressed in Arabidopsis mesophyll protoplasts) (chain, as listed by the source T704A S707A S710A): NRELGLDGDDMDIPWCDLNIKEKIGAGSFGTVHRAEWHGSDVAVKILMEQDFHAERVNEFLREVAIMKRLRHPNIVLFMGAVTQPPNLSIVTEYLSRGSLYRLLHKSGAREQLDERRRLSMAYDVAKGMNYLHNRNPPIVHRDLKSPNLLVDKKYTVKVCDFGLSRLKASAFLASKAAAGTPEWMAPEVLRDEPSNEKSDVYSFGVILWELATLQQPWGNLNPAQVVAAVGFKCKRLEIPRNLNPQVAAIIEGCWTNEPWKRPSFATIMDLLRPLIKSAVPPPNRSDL
Sequence of His6-CTR1-KD^WT (purified CTR1 kinase domain, residues 531-821) (chain, as listed by the source): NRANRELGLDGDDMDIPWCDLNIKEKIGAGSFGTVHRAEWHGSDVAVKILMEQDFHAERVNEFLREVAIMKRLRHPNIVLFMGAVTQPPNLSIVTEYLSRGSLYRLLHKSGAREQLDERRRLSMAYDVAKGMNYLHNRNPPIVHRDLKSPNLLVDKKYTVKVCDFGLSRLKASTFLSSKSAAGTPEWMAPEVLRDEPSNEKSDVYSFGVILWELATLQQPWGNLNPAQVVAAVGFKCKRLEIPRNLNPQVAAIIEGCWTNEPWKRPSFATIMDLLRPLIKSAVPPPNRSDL

| Substance | in vitro kinase assay ([γ-32P]ATP incorporation, autoradiography) (His6-EBF2 (purified)) | Phos-tag gel band shift of EIN2-CEND on co-expression in Arabidopsis mesophyll protoplasts [1] |
| --- | --- | --- |
| His6-CTR1-KD^WT (purified CTR1 kinase domain, residues 531-821) | in vitro kinase assay demonstrated that CTR1 does not phosphorylate EBF2 |  |
| CTR1-KD (wild-type CTR1 kinase domain lacking the N-terminal domain, expressed in Arabidopsis mesophyll protoplasts) |  | Wild-type CTR1-KD, but not CTR1-KD^AAA, phosphorylated EIN2-CEND when co-expressed in Arabidopsis mesophyll protoplasts |
| CTR1-KD^AAA (CTR1 kinase domain with T704A/S707A/S710A, expressed in Arabidopsis mesophyll protoplasts) |  | Wild-type CTR1-KD, but not CTR1-KD^AAA, phosphorylated EIN2-CEND when co-expressed in Arabidopsis mesophyll protoplasts |
